Holding throughout (assay): cell-based or functional assay
Test [1] deals with full-length human glucagon-like peptide 2 receptor on HEK293/CRE-Luc/hGLP2R cells (human) (UniProt O95838).
The target in test [2] is full-length human gastric inhibitory polypeptide receptor on HEK293/CRE-Luc/hGIPR cells (human) (UniProt P48546).
The target in test [3] is full-length human glucagon receptor on HEK293/CRE-Luc/hGCGR cells (human) (UniProt P47871).
Test [4] addresses full-length human glucagon-like peptide 2 receptor on HEK293/CRE-Luc/hGLP2R cells (human) (UniProt O95838). This is another data set of the same source.
For test [5], the target named is full-length human gastric inhibitory polypeptide receptor on HEK293/CRE-Luc/hGIPR cells (human) (UniProt P48546). This is another data set of the same source.
In test [6] the target is full-length human glucagon receptor on HEK293/CRE-Luc/hGCGR cells (human) (UniProt P47871). The source holds these as a separate data set.
Test [7] deals with full-length human GLP1R on HEK293/CRE-Luc/hGLP1R cells (human) (UniProt P43220).
Test [8] deals with full-length cynomolgus GLP1R on HEK293/CRE-Luc/mfGLP1R cells (cynomolgus) (UniProt F8V479).
Test [9] deals with full-length human GLP1R on HEK293/CRE-Luc/hGLP1R cells (human) (UniProt P43220). The source holds these as a separate data set.
The target in test [10] is full-length cynomolgus GLP1R on HEK293/CRE-Luc/mfGLP1R cells (cynomolgus) (UniProt F8V479). This is another data set of the same source.
Target sequence in this assay (F8V479 entry or part of it): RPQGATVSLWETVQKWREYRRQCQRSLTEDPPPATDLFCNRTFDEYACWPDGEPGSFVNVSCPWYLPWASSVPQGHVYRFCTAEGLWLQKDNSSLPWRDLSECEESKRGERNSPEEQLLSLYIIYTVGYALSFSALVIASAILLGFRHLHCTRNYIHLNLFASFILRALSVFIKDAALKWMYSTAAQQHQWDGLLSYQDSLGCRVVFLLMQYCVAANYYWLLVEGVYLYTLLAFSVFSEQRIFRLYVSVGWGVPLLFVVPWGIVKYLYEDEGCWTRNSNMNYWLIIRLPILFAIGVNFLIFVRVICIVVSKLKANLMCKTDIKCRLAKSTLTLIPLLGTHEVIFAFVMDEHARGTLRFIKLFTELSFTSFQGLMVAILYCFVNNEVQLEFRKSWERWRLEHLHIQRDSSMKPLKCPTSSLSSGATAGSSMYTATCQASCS

For five substances, CRE-luc EC50 results are on record in patent US20230330254A1, “ANTI-GLP1R ANTIBODY-TETHERED DRUG CONJUGATES COMPRISING GLP1 PEPTIDOMIMETICS AND USES THEREOF” (Regeneron Pharmaceuticals, Inc., priority 2022, published 2023).

Like-named read-outs stand apart in the source and are kept apart here.

Sequence of full-length human glucagon-like peptide 2 receptor on HEK293/CRE-Luc/hGLP2R cells (human) (O95838 whole entry): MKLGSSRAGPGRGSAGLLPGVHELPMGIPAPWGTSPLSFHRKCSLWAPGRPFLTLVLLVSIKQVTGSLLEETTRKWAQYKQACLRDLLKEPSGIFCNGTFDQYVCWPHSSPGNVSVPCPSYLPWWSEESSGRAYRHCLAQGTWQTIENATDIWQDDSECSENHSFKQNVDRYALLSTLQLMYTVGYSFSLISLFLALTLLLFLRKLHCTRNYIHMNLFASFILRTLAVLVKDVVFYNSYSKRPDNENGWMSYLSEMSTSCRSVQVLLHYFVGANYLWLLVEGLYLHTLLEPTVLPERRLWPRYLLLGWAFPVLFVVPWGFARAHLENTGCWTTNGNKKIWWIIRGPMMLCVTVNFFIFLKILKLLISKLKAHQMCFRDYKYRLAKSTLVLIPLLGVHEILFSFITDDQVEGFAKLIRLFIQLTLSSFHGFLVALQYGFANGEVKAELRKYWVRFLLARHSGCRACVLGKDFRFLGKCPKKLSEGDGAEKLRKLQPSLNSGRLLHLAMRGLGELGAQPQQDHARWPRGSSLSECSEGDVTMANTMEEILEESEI
Sequence of human GCG (glucagon) (P01275 53-81 limits assumed): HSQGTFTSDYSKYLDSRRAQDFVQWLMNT
Sequence of full-length human glucagon receptor on HEK293/CRE-Luc/hGCGR cells (human) (P47871 26-477): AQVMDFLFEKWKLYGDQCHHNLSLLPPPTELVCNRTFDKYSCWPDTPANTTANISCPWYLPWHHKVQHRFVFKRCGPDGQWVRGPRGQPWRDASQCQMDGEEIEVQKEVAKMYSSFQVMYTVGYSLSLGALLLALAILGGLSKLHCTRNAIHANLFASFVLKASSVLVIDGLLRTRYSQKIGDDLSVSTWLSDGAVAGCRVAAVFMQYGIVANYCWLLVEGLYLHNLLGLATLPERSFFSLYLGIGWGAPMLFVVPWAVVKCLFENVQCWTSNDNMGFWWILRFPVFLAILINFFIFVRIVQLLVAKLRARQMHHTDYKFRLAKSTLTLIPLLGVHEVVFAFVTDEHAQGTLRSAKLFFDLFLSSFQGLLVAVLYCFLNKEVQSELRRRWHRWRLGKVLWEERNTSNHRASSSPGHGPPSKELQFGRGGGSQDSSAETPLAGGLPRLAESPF
Sequence of human GLP2 (P01275 146-178 limits assumed): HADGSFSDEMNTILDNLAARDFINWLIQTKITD
Sequence of full-length human gastric inhibitory polypeptide receptor on HEK293/CRE-Luc/hGIPR cells (human) (P48546 22-466): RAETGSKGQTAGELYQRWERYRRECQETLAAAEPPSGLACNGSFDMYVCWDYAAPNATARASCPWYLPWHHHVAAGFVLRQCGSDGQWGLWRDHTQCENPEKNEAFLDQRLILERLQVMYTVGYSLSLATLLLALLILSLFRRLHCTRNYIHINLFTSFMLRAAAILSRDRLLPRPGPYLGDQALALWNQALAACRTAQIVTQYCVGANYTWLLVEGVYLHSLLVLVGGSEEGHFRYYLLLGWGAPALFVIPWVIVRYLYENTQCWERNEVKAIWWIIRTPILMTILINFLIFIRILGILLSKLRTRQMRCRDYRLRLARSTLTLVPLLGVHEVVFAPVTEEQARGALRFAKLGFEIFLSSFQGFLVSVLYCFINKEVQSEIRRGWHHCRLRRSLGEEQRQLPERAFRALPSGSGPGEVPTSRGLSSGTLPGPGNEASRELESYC
Sequence of full-length human GLP1R on HEK293/CRE-Luc/hGLP1R cells (human) (P43220 24-463): as the sequence (F8V479 entry or part of it) above, with N112S, S120F, G202S, V205L, F237L, R241W, V249I counted along it

For the substance “human GLP1 (reference ligand) (from UniProt P01275 98-128)”, the CRE-luc EC50 was more than 30 nM in test [1]; more than 30 nM in [2]; more than 30 nM in test [3]; more than 200 nM in test [4]; more than 200 nM in test [5]; more than 200 nM in test [6].

For the substance “Isotype control Ab (unconjugated; Q tag none or not stated) (antibody)”, the CRE-luc EC50 in [7], in test [8], in test [1], in test [2] and in test [3] was more than 300 nM each time.

Turning to “human GLP2 (from UniProt P01275 146-178) (ligand)”, the CRE-luc EC50 is more than 30 nM in [7]; more than 30 nM in test [2]; more than 30 nM in [3]; more than 200 nM in [9]; more than 200 nM in test [10]; more than 200 nM in test [5]. This substance also returned a CRE-luc EC50 in test [6] of more than 200 nM.

Consider “human GCG (glucagon) (from UniProt P01275 53-81) (ligand)”, for which the CRE-luc EC50 is more than 30 nM in test [1], more than 30 nM in [2], more than 200 nM in test [4] and more than 200 nM in [5].

Regarding “human GIP (from UniProt P09681 52-93) (ligand)”, the CRE-luc EC50 in [7] was more than 30 nM; in test [1], more than 30 nM; in test [3], more than 30 nM; in test [9], more than 200 nM; in test [10], more than 200 nM; in test [4], more than 200 nM. In [6], this substance had a CRE-luc EC50 of more than 200 nM.
